{"source": "paper doi:10.1101/2024.04.06.588386", "about": "“Structural plasticity of 2A proteins in the Parechovirus family” (bioRxiv, 2024)", "proteins": {"B1": {"name": "HPeV1-2A^FL (full-length 2A^H/NC protein of human parechovirus 1) (natural protein)", "chain": "SPYGQQPQNRMMKLAYLDRGFYKHYGIIVGDHVYQLDSDDIFKTALTGKAKFTKTKLTSDWVIEEECELDYFRIKYLESAVDSEHIFSVDKNCETIAKDIFGTHTLSQHQAIGLVGTILLTAGLMSTIKTPVNAVTIKEFFNHAIDGDEQ", "notes": "also called full-length HPeV1-2A"}}, "molecular_target": "the molecule itself", "test": "SEC-SAXS; Superdex S75 Increase 5/150; 20 mM Hepes-NaOH pH 7.4, 150 mM NaCl, 4 mM TCEP, 1% v/v glycerol; molecular weight estimates and fit of crystallographic dimers (CRYSOL, NMA)", "data": [{"protein": "B1", "values": [{"measurement": "stoichiometry N", "result": 2}]}]}
